Measurements reported in article PMC3605678.

Target: ERK5ΔC385–399 (human) (UniProt Q13164)
Test: fluorescence polarisation

MKK5 PB1-D construct (16–130), unlabeled, sequence (Q13163 16-130): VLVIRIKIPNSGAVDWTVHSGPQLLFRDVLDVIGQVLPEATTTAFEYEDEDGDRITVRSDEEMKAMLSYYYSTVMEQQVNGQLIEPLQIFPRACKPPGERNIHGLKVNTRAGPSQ

fold reduction of binding affinity against the wild-type pair: 20 fold
Substance: MKK5 PB1-D construct (16–130), unlabeled (from UniProt Q13163 16-130) (domain or fragment)
